From IntAct's records for PubMed 16499958

How the values were obtained:
rabx5_human RABGEF1 [1] = molecular target: rabx5_human RABGEF1 (UniProt Q9UJ41)
rabx5_human RABGEF1 [2] = molecular target: rabx5_human RABGEF1 (UniProt Q9UJ41); remark: listed apart in the source

effect of a mutation on the interaction (rabx5_human RABGEF1 [1]) | effect of a mutation on the interaction (rabx5_human RABGEF1 [2]) | Substance
decreasing interaction |  | Polyubiquitin-B (Homo sapiens) (from UniProt P0CG47) I44A
 | decreasing interaction | Polyubiquitin-B (Homo sapiens) (from UniProt P0CG47) D58A
